Experimental data reported in patent US20030190342A1.

Experiments:
[1] = target: human collagen type III (human) (UniProt P02461); assay: microtiter plate competition: inhibition of binding of vWF in diluted murine plasma to coated human collagen type III
[2] = target: calf skin collagen (calf); assay: cell-based or functional assay
[3] = target: collagen (platelet aggregation agonist, 0.5 µg ml^-1); assay: cell-based or functional assay
[4] = target: calf skin collagen (calf); assay: microtiter plate competition: inhibition of purified human vWF binding to coated calf skin collagen; competitor purified human vWF, detected with anti-vWF-HRP
[5] = target: human collagen type III (human) (UniProt P02461); assay: SPR (BIAcore 3000), immobilised human collagen type III, Scatchard analysis of plateau RU; low affinity site
[6] = target: calf skin collagen (calf); assay: microtiter plate competition: inhibition of binding of vWF in diluted human plasma to coated calf skin collagen
[7] = target: calf skin collagen (calf); assay: microtiter plate competition: inhibition of binding of vWF in diluted porcine plasma to coated calf skin collagen
[8] = target: human collagen type III (human) (UniProt P02461); assay: microtiter plate competition: inhibition of purified human vWF binding to coated human collagen III; competitor purified human vWF, detected with anti-vWF-HRP
[9] = target: calf skin collagen (calf); assay: microtiter plate competition: inhibition of binding of vWF in diluted hamster plasma to coated calf skin collagen
[10] = target: human collagen type III (human) (UniProt P02461); assay: microtiter plate competition: inhibition of binding of vWF in diluted human plasma to coated human collagen type III
[11] = target: human collagen type I (human) (UniProt P02452); assay: microtiter plate competition: inhibition of binding of vWF in diluted human plasma to coated human collagen type I
[12] = target: human collagen type III (human) (UniProt P02461); assay: SPR (BIAcore 3000), immobilised human collagen type III, Scatchard analysis of plateau RU; high affinity site
[13] = target: human collagen type I (human) (UniProt P02452); assay: microtiter plate competition: inhibition of binding of vWF in diluted murine plasma to coated human collagen type I
[14] = target: human collagen type I (human) (UniProt P02452); assay: microtiter plate competition: inhibition of purified human vWF binding to coated human collagen I; competitor purified human vWF, detected with anti-vWF-HRP
[15] = target: human collagen type I (human) (UniProt P02452); assay: microtiter plate competition: inhibition of binding of vWF in diluted porcine plasma to coated human collagen type I
[16] = target: calf skin collagen (calf); assay: microtiter plate competition: inhibition of binding of vWF in diluted murine plasma to coated calf skin collagen
[17] = target: human collagen type I (human) (UniProt P02452); assay: microtiter plate competition: inhibition of binding of vWF in diluted hamster plasma to coated human collagen type I
[18] = target: human collagen type III (human) (UniProt P02461); assay: microtiter plate competition: inhibition of binding of vWF in diluted porcine plasma to coated human collagen type III

Sequence of UniProt P02461 (P02461 154-1221): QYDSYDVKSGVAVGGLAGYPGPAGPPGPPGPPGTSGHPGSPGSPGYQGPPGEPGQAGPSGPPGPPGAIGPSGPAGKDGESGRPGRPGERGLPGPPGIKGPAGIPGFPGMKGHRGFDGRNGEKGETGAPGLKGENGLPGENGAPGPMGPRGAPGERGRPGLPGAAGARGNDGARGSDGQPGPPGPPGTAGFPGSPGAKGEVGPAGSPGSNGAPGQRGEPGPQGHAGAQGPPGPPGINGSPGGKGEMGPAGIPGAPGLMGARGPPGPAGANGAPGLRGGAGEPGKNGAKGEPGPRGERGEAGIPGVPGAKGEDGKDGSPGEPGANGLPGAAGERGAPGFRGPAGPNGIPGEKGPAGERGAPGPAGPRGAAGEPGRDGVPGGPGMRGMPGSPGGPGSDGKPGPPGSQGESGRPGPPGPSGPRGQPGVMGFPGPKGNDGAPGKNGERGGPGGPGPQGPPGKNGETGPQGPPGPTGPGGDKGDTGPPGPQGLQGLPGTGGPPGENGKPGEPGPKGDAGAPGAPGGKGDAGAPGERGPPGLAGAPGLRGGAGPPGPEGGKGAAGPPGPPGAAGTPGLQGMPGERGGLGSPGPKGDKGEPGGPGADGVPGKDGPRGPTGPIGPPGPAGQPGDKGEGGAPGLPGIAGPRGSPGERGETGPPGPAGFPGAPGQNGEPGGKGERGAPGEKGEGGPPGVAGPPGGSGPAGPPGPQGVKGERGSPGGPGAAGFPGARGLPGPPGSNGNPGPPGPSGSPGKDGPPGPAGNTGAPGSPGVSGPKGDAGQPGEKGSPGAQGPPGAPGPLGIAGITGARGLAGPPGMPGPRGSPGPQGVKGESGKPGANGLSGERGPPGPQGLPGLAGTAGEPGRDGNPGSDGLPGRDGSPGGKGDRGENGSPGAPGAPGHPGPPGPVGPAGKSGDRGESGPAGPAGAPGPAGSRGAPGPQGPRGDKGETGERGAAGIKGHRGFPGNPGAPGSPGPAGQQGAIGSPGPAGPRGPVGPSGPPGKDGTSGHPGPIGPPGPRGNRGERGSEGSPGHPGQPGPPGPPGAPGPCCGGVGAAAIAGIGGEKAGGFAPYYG
Sequence of calf skin collagen (calf) (P02453 162-1217, chain 1 of 2): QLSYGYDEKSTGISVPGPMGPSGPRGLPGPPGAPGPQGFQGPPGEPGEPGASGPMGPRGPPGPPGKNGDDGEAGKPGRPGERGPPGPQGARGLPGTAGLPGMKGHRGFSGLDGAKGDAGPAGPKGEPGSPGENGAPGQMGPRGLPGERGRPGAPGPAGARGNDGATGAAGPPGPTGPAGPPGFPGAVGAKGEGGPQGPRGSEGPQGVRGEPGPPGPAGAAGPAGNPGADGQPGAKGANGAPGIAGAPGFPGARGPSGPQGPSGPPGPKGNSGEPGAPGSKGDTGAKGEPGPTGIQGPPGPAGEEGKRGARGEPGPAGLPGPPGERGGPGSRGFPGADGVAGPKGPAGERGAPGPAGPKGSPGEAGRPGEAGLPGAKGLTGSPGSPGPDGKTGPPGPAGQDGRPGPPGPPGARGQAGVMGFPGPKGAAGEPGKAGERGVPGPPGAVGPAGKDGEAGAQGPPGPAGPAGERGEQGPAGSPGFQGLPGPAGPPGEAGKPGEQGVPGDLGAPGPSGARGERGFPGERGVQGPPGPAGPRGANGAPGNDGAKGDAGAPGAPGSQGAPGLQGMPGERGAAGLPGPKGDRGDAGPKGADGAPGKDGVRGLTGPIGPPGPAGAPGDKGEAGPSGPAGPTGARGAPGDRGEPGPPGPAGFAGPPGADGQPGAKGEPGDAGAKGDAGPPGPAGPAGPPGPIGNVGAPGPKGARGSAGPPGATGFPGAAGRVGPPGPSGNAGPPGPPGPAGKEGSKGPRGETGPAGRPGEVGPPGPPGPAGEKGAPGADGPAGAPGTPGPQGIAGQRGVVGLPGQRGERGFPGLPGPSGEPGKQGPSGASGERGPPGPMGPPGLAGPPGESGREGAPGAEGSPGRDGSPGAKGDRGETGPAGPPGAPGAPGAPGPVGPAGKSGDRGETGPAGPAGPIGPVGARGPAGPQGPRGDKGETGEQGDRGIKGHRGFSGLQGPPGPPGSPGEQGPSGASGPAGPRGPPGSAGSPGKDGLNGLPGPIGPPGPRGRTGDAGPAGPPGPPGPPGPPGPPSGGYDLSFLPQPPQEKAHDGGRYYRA
Sequence of calf skin collagen (calf) (P02465 80-1117, chain 2 of 2, further chain): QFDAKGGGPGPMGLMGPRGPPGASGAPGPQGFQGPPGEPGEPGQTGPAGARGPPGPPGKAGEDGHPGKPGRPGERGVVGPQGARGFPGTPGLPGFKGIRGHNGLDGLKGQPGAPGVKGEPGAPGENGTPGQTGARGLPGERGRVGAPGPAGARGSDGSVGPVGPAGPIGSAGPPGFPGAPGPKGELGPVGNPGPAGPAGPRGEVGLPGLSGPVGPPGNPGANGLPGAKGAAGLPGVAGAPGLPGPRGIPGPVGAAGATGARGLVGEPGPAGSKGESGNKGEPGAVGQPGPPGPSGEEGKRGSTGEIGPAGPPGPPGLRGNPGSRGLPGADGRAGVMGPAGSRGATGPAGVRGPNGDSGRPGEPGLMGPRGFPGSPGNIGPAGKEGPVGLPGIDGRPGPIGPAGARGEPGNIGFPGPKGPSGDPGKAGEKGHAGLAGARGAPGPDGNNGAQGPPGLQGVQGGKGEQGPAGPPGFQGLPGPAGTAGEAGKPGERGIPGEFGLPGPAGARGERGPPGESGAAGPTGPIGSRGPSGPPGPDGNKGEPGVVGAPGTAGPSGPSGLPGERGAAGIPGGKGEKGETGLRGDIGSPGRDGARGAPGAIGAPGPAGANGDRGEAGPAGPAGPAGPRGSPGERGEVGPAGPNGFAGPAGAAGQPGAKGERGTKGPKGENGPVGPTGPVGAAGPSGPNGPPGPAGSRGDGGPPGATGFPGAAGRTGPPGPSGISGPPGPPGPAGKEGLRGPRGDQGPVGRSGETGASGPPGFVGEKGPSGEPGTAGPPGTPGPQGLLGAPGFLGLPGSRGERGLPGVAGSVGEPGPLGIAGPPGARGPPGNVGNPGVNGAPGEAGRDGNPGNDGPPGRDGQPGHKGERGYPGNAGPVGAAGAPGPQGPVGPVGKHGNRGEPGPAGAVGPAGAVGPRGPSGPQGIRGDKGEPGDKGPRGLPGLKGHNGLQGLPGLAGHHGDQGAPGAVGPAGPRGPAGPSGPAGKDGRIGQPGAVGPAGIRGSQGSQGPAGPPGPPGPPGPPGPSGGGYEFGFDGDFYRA

- IC50 [1]: 0.6 mg/L
- IC50 of inhibition of platelet adhesion to collagen-coated coverslips, flow chamber, shear rate 1300 s^-1 [2]: 5.2 mg/L
- IC50 of inhibition of platelet adhesion to collagen-coated coverslips, flow chamber, shear rate 2700 s^-1 [2]: 0.96 mg/L
- inhibition of platelet adhesion to collagen-coated coverslips, flow chamber, shear rate 300 s^-1 [2]: > 10 µg/mL
- Aggregation (%) of platelet-rich plasma induced by collagen at 10 µg ml^-1 saratin [3]: 67%
- Aggregation (%) of platelet-rich plasma induced by collagen at 20 µg ml^-1 saratin [3]: 63%
- Aggregation (%) of platelet-rich plasma induced by collagen at 40 µg ml^-1 saratin [3]: 64%
- Aggregation (%) of platelet-rich plasma induced by collagen at 200 µg ml^-1 saratin [3]: 0%
- IC50 [4]: 0.44 mg/L
- Kd [5]: 2 µM
- IC50 [6]: 0.3 mg/L
- IC50 [7]: 0.5 mg/L
- IC50 [8]: 0.81 mg/L
- IC50 [9]: 7 mg/L
- IC50 [10]: 0.9 mg/L
- IC50 [11]: 0.2 mg/L
- Kd [12]: 0.05 µM
- IC50 [13]: 0.1 mg/L
- IC50 [14]: 0.23 mg/L
- IC50 [15]: 0.2 mg/L
- IC50 [16]: 0.3 mg/L
- IC50 [17]: 0.4 mg/L
- IC50 [18]: 0.5 mg/L
Substance: Saratin
